Source: paper PMC9993738

B1: SpS1-C4 (ssDNA)
DNA: GAACATTGGCGTCCGTGAGCAGCTCGTGGTTGTTTGCTTGTATACTTTTGTGGTTTATCTTGTTTCTGATCACTTCCTCAAACGCCCAA
B2: SpS1-C1 (ssDNA)
DNA: GAACATTGGCGTCCGTGAGTGAGACCATAGTCCAGCGAACTAAACCTACCCTAAAGGGCAAGGAAGACGGGCACTTCCTCAAACGCCCAA

Target: SARS-CoV-2 spike S1 subunit (SARS-CoV-2, UniProt P0DTC2 14-685)
Test: bead-based fluorescence

Row | Binder | binding result
1 | B1 | binds
2 | B2 | binds
